PMC2938383 (Molecular Biology of the Cell, 2010)

Molecular target: the molecule itself
Test: SEC

B1: purified wild-type lipin1β (His6-tagged, baculovirus expressed) (enzyme, mouse, UniProt Q91ZP3 1-924, looked up)
chain: MNYVGQLAGQVFVTVKELYKGLNPATLSGCIDIIVIRQPNGSLQCSPFHVRFGKMGVLRSREKVVDIEINGESVDLHMKLGDNGEAFFVQETDNDQEIIPMYLATSPILSEGAARMESQLKRNSVDRIRCLDPTTAAQGLPPSDTPSTGSLGKKRRKRRRKAQLDNLKRDDNVNSSEDEDMFPIEMSSDEDTAPMDGSRTLPNDVPPFQDDIPKENFPSISTHPQSASYPSSDREWSPSPSSLVDCQRTPPHLAEGVLSSSCPLQSCHFHASESPSGSRPSTPKSDSELVSKSADRLTPKNNLEMLWLWGELPQAAKSSSPHKMKESSPLGSRKTPDKMNFQAIHSESSDTFSDQSPTMARGLLIHQSKAQTEMQFVNEEDLESLGAAAPPSPVAEELKAPYPNTAQSSSKTDSPSRKKDKRSRHLGADGVYLDDLTDMDPEVAALYFPKNGDPGGLPKQASDNGARSANQSPQSVGGSGIDSGVESTSDSLRDLPSIAISLCGGLSDHREITKDAFLEQAVSYQQFADNPAIIDDPNLVVKVGNKYYNWTTAAPLLLAMQAFQKPLPKATVESIMRDKMPKKGGRWWFSWRGRNATIKEESKPEQCLTGKGHNTGEQPAQLGLATRIKHESSSSDEEHAAAKPSGSSHLSLLSNVSYKKTLRLTSEQLKSLKLKNGPNDVVFSVTTQYQGTCRCEGTIYLWNWDDKVIISDIDGTITRSDTLGHILPTLGKDWTHQGIAKLYHKVSQNGYKFLYCSARAIGMADMTRGYLHWVNERGTVLPQGPLLLSPSSLFSALHREVIEKKPEKFKVQCLTDIKNLFFPNTEPFYAAFGNRPADVYSYKQVGVSLNRIFTVNPKGELVQEHAKTNISSYVRLCEVVDHVFPLLKRSHSCDFPCSDTFSNFTFWREPLPPFENQDMHSASA
stoichiometry N: ~4
